Reference: PMC11602143, “Human selenocysteine synthase, SEPSECS, has evolved to optimize binding of a tRNA-based substrate” (Nucleic Acids Research, 2024)

B1: Human SEPSECS (O-phosphoseryl-tRNA^Sec selenium transferase), wild type (enzyme)
chain: MNRESFAAGERLVSPAYVRQGCEARRSHEHLIRLLLEKGKCPENGWDESTLELFLHELAIMDSNNFLGNCGVGEREGRVASALVARRHYRFIHGIGRSGDISAVQPKAAGSSLLNKITNSLVLDIIKLAGVHTVANCFVVPMATGMSLTLCFLTLRHKRPKAKYIIWPRIDQKSCFKSMITAGFEPVVIENVLEGDELRTDLKAVEAKVQELGPDCILCIHSTTSCFAPRVPDRLEELAVICANYDIPHIVNNAYGVQSSKCMHLIQQGARVGRIDAFVQSLDKNFMVPVGGAIIAGFNDSFIQEISKMYPGRASASPSLDVLITLLSLGSNGYKKLLKERKEMFSYLSNQIKKLSEAYNERLLHTPHNPISLAMTLKTLDEHRDKAVTQLGSMLFTRQVSGARVVPLGSMQTVSGYTFRGFMSHTNNYPCAYLNAASAIGMKMQDVDLFIKRLDRCLKAVRKERSKESDDNYDKTEDVDIEEMALKLDNVLLDTYQDASS
notes: Human SEPSECS, wild type, cloned into pET15b (pET15b-hWTSSS); no tag cleavage is described in the purification; PLP cofactor is present in the buffers; also called WT SEPSECS; human WT SEPSECS
B2: Δ470 SEPSECS (human SEPSECS with Asp470 mutated to a stop codon) (domain or fragment, UniProt Q9HD40 1-469, looked up)
chain: MNRESFAAGERLVSPAYVRQGCEARRSHEHLIRLLLEKGKCPENGWDESTLELFLHELAIMDSNNFLGNCGVGEREGRVASALVARRHYRFIHGIGRSGDISAVQPKAAGSSLLNKITNSLVLDIIKLAGVHTVANCFVVPMATGMSLTLCFLTLRHKRPKAKYIIWPRIDQKSCFKSMITAGFEPVVIENVLEGDELRTDLKAVEAKVQELGPDCILCIHSTTSCFAPRVPDRLEELAVICANYDIPHIVNNAYGVQSSKCMHLIQQGARVGRIDAFVQSLDKNFMVPVGGAIIAGFNDSFIQEISKMYPGRASASPSLDVLITLLSLGSNGYKKLLKERKEMFSYLSNQIKKLSEAYNERLLHTPHNPISLAMTLKTLDEHRDKAVTQLGSMLFTRQVSGARVVPLGSMQTVSGYTFRGFMSHTNNYPCAYLNAASAIGMKMQDVDLFIKRLDRCLKAVRKERSKES
notes: Human SEPSECS truncated by a stop codon at the position of Asp470 (removes the α15–α16 loop and α16); made from pET15b-hWTSSS by site-directed mutagenesis; Same vector and purification as the wild type; also called Δ470 human SEPSECS; truncated mutant

Target: the molecule itself
Assay: SEC-MALS; protein alone, 250 μl at 1 and 4 mg/ml on Superose 6 Increase 10/300; 20 mM Tris pH 8.0, 150 mM NaCl, 5% glycerol, 0.5 mM TCEP, 10 μM PLP; oligomeric state of the holoenzyme

Protein	stoichiometry N
B1	4
B2	4
